Reference: patent US20210393776A1 (FABION PHARMACEUTICALS, published 2021)
Positions count from the first letter of the chain named. Read-outs that look alike come from different tables or passages of the source.

Tests used:
[1] = target: T1, recombinant cyno CD3epsilon/delta Fc(K-H) heterodimer (cynomolgus); assay: ELISA, immobilised antigen, biotinylated protein, streptavidin-HRP, ABTS, OD405
T1 construct: also called cynomolgus CD3epsilon/delta; recombinant cyno CD3epsilon/delta heterodimeric Fc protein; copies: 1 + 1

[2] = target: T2, full length human EpCAM on CHO cells (human, UniProt P16422 24-314); assay: flow cytometry on CHO cells stably expressing full length human EpCAM, PE detection
T2 construct: CHO cells stably expressing full length human EpCAM; also called hu-EpCAM-FL; human EpCAM-FL
T2 sequence: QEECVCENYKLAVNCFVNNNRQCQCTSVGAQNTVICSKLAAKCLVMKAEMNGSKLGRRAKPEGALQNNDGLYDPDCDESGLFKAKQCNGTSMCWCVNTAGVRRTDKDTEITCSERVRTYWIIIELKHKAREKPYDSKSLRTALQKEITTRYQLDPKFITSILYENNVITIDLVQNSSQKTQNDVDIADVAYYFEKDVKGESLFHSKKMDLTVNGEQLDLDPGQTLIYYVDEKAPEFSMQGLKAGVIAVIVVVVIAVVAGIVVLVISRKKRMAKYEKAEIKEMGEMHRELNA

[3] = target: T3, human CD3epsilonAA1-27.Fc (human); assay: ELISA, immobilised antigen, biotinylated protein, streptavidin-HRP, ABTS, OD405
T3 construct: also called recombinant human CD3epsilon N-terminal peptide (aa1-27.Fc fusion); CD3epsilon N-terminal amino acid 1-27 peptide Fc fusion

[4] = target: T1, recombinant cyno CD3epsilon/delta …; assay: ELISA, immobilised antigen, His6-tagged Fab, anti-His6 antibody HRP conjugate, ABTS, OD405 [continued) E]
[5] = target: T3, human CD3epsilonAA1-27.Fc; assay: ELISA, immobilised antigen, His6-tagged Fab, anti-His6 antibody HRP conjugate, ABTS, OD405
[6] = target: T4, recombinant human CD3epsilon/delta Fc(K-H) heterodimer (human); assay: as above
T4 construct: also called human CD3epsilon/delta knob and hole Fc heterodimer; copies: 1 + 1
T4 sequence (chain, as listed by the source mutant limits assumed, chain 1 of 2): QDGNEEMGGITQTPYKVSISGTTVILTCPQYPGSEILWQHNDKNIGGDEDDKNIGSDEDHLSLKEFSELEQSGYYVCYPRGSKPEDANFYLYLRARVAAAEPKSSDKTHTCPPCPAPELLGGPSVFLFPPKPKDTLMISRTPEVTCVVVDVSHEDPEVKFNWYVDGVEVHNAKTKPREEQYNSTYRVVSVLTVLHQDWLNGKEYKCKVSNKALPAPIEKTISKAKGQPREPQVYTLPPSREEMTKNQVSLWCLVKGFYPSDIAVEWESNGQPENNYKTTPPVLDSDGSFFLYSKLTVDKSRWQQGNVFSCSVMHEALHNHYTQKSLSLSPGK
T4 sequence (chain, as listed by the source mutant limits assumed, chain 2 of 2): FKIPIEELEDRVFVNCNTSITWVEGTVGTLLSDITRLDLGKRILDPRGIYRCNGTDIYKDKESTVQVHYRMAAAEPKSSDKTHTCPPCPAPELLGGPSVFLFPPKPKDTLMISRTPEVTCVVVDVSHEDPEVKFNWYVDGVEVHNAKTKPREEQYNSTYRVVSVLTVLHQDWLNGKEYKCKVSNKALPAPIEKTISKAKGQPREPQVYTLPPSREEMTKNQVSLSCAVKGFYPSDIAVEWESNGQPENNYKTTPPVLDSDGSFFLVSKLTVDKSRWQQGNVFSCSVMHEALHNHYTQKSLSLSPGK

[7] = target: T1, recombinant cyno CD3epsilon/delta …; assay: ELISA, immobilised antigen, His6-tagged Fab, anti-His6 antibody HRP conjugate, ABTS, OD405 [continued) F]
[8] = target: T4, recombinant human CD3epsilon/delta …; assay: ELISA, immobilised antigen, His6-tagged Fab, anti-His6 antibody HRP conjugate, ABTS, OD405; remark: listed apart in the source
[9] = target: T3, human CD3epsilonAA1-27.Fc; assay: as above; remark: listed apart in the source
[10] = target: T2, full length human EpCAM on CHO cells; assay: flow cytometry on CHO cells stably expressing full length human EpCAM, PE detection; remark: listed apart in the source
[11] = target: T1, recombinant cyno CD3epsilon/delta …; assay: ELISA, immobilised antigen, biotinylated protein, streptavidin-HRP, ABTS, OD405; remark: listed apart in the source
[12] = target: T3, human CD3epsilonAA1-27.Fc; assay: as above; remark: listed apart in the source
[13] = target: T2, full length human EpCAM on CHO cells; assay: flow cytometry on CHO cells stably expressing full length human EpCAM, PE detection; remark: listed apart in the source

B1: EpCAM1.2-(H)-hu-1F3.1 Fab (bispecific antibody)
heavy chain Fd with anti-EpCAM scFv EpCAM1.2 at the N-terminus: EVQLVESGGGLVQPGGSLRLSCAASGFTFSNYWMSWVRQAPGKGLEWVANIKQDGSEKFYVDSVKGRFTISRDNAKNSLYLQMNSLRAEDMAVYYCARVGGAWELGYWGQGTLVTVSAGGGGSGGGGSGGGGSGAQSVLTQPPSVSGAPGQRVTISCTGSSSNIGSYYGVHWYQQLPGTAPKLLIYSDTNRPSGVPDRFSGSKSGTSASLAITGLQAEDEADYYCQSYDSSLSGRVFGGGTKMTVLGRAEVQLVESGGGLVQPGGSLRLSCAASGFTFSTYAMNWVRQAPGKGLEWVSRIRSKYNNYATYYADSVKDRFTISRDDSKNTLYLQMNSLRAEDTAVYYCARHGNFGNSYVSWFAYWGQGTMVTVSSASTKGPSVFPLAPCSRSTSESTAALGCLVKDYFPEPVTVSWNSGALTSGVHTFPAVLQSSGLYSLSSVVTVPSSNFGTQTYTCNVDHKPSNTKVDKTVGGGGSHHHHHHH
light chain, unfused: QAVVTQEPSLTVSPGGTVTLTCRSSTGAVTTSNYANWVQQKPGQAPRGLIGGTNKRAPGTPARFSGSLLGGKAALTLSGVQPEDEAEYYCALWYSNLWVFGGGTKLTVLGQPKAAPSVTLFPPSSEELQANKATLVCLISDFYPGAVTVAWKADSSPVKAGVETTTPSKQSNNKYAASSYLSLTPEQWKSHRSYSCQVTHEGSTVEKTVAPTECS
notes: member of group m20; also called EpCAM1.2-(H)-hu-1F3 Fab
Does B1 bind [1]?
Result: binds

Does B1 bind [2]?
Result: binds

Does B1 bind [3]?
Result: binds

B2: EpCAM1.2-(L)-hu-1F3.1 Fab (bispecific antibody)
heavy chain Fd (VH-CH1), unfused: EVQLVESGGGLVQPGGSLRLSCAASGFTFSTYAMNWVRQAPGKGLEWVSRIRSKYNNYATYYADSVKDRFTISRDDSKNTLYLQMNSLRAEDTAVYYCARHGNFGNSYVSWFAYWGQGTMVTVSSASTKGPSVFPLAPCSRSTSESTAALGCLVKDYFPEPVTVSWNSGALTSGVHTFPAVLQSSGLYSLSSVVTVPSSNFGTQTYTCNVDHKPSNTKVDKTVGGGGSHHHHHHH
light chain with anti-EpCAM scFv EpCAM1.2 at the N-terminus: EVQLVESGGGLVQPGGSLRLSCAASGFTFSNYWMSWVRQAPGKGLEWVANIKQDGSEKFYVDSVKGRFTISRDNAKNSLYLQMNSLRAEDMAVYYCARVGGAWELGYWGQGTLVTVSAGGGGSGGGGSGGGGSGAQSVLTQPPSVSGAPGQRVTISCTGSSSNIGSYYGVHWYQQLPGTAPKLLIYSDTNRPSGVPDRFSGSKSGTSASLAITGLQAEDEADYYCQSYDSSLSGRVFGGGTKLTVLGRAQAVVTQEPSLTVSPGGTVTLTCRSSTGAVTTSNYANWVQQKPGQAPRGLIGGTNKRAPGTPARFSGSLLGGKAALTLSGVQPEDEAEYYCALWYSNLWVFGGGTKLTVLGQPKAAPSVTLFPPSSEELQANKATLVCLISDFYPGAVTVAWKADSSPVKAGVETTTPSKQSNNKYAASSYLSLTPEQWKSHRSYSCQVTHEGSTVEKTVAPTECS
notes: member of group m20; also called EpCAM1.2-(L)-hu-1F3 Fab
Does B2 bind [1]?
Result: binds

Does B2 bind [2]?
Result: binds

Does B2 bind [3]?
Result: binds

B3: EpCAM1.2-(H+L)-hu-1F3.1 Fab (bispecific antibody)
heavy chain Fd with anti-EpCAM scFv EpCAM1.2 at the N-terminus: B1 heavy chain Fd with anti-EpCAM scFv EpCAM1.2 at the N-terminus
light chain with anti-EpCAM scFv EpCAM1.2 at the N-terminus: B2 light chain with anti-EpCAM scFv EpCAM1.2 at the N-terminus
notes: member of group m20; also called EpCAM1.2-(H+L)-hu-1F3 Fab
Does B3 bind [1]?
Result: binds

Does B3 bind [2]?
Result: binds

Does B3 bind [3]?
Result: binds

B4: hu-1F3.3 Fab (Fab, V domains shown)
VH: EVQLVESGGGLVQPGGSLRLSCAASGFTFSTYAMNWVRQAPGKGLEWVARIRSKYNNYATYYADSVKDRFTISRDDSKNTLYLQMNSLRAEDTAVYYCARHGNFGNSYVSWFAYWGQGTMVTVSS
VL: QAVVTQEPSLTVSPGGTVTLTCRSSTGAVTTSNYANWVQQKPGQAPRGLIGGTNKRAPGTPARFSGSLLGGKAALTLSGVQPEDEAEYYCALWYSNLWVFGGGTKLTVL
notes: His6 tag at the C-terminus of the Fd
Does B4 bind [4]?
Result: binds

Does B4 bind [5]?
Result: binds

Does B4 bind [6]?
Result: binds

B5: hu-1F3.8 Fab (Fab, V domains shown)
VH: B4 VH
VL: QAVVTQEPSLTVSPGGTVTLTCRSSTGAVTTSNYANWFQQKPGQAPRGLIGGTNKRAPGTPARFSGSLLGGKAALTLSGVQPEDEAEYYCALWYSNLWVFGGGTKLTVLG
notes: as for B4
What does the source list for B5?
binding result [7]: binds; binding result [8]: binds; binding result [9]: binds

B6: hu-1F3.9 Fab (Fab, V domains shown)
VH: B4 VH with A99V
VL: B5 VL
notes: as for B4
Which results are given for B6?
binding result [7]: binds; binding result [8]: binds; binding result [9]: binds

B7: hu-1F3.1 Fab (Fab, V domains shown)
VH: B4 VH with A49S
VL: B4 VL
notes: His6 tag at the C-terminus of the Fd; No entry is named hu-1F3-1LC; also called hu-1F3 Fab; humanized anti CD3 antibody Fab, hu-1F3
Does B7 bind [10]?
Result: no binding

Does B7 bind [4]?
Result: binds

Does B7 bind [5]?
Result: binds

Does B7 bind [6]?
Result: binds

B8: hu-1F3.5 Fab (Fab, V domains shown)
VH: B4 VH with S30N, A99V
VL: B4 VL
notes: His6 tag at the C-terminus of the Fd; also called huIF3.5
Which “EC50 (read off the curve)” value [4] does the source give for B8 here?
Its value is ~2 nM.

What about the “EC50 (read off the curve)” value [5] of the same binder?
Its value is ~2 nM.

What about the “EC50 (read off the curve)” value [6] of the same binder?
The value was ~3 nM.

B9: hu-1F3.2 Fab (Fab, V domains shown)
VH: B4 VH with S30N, A49S
VL: B4 VL
notes: as for B4
Does B9 bind [4]?
Result: binds

Does B9 bind [5]?
Result: binds

Does B9 bind [6]?
Result: binds

B10: hu-1F3.10 Fab (Fab, V domains shown)
VH: B4 VH with S30N, A99V
VL: B5 VL
notes: as for B4
What does the source list for B10?
binding result [7]: binds; binding result [8]: binds; binding result [9]: binds

B11: hu-1F3.4 Fab (Fab, V domains shown)
VH: B4 VH with A99V
VL: B4 VL
notes: as for B4
Does B11 bind [5]?
Result: binds

B12: hu-1F3.7 Fab (Fab, V domains shown)
VH: B4 VH with S30N, A49S
VL: B5 VL
notes: as for B4
Does B12 bind [7]?
Result: binds

Does B12 bind [8]?
Result: binds

Does B12 bind [9]?
Result: binds

B13: hu-1F3.6 Fab (Fab, V domains shown)
VH: B4 VH with A49S
VL: B5 VL
notes: as for B4
Which results are given for B13?
binding result [7]: binds; binding result [8]: binds; binding result [9]: binds

B14: OKT3 Fab (Fab, V domains shown)
VH: not shown
VL: QIVLTQSPAIMSASPGEKVTMTCSASSSVSYMNWYQQKSGTSPKRWIYDTSKLASGVPAHFRGSGSGTSYSLTISGMEAEDAATYYCQQWSSNPFTFGSGTKLEINR
notes: Anti-CD3 Fab; biotinylated in the assays
Does B14 bind [11]?
Result: no binding (tested: about 80 nM (last point; axis to 100 nM))

Does B14 bind [12]?
Result: no binding (tested: about 80 nM (last point; axis to 100 nM))

Does B14 bind [13]?
Result: no binding
